Values of other authors as cited in article PMC3076733.
pKd: −log10 of the molar value.

Target: Obscurin Rho-GEF (Homo sapiens) (UniProt Q5VST9)
Chain of UniProt Q5VST9 (Q5VST9 5700-5884): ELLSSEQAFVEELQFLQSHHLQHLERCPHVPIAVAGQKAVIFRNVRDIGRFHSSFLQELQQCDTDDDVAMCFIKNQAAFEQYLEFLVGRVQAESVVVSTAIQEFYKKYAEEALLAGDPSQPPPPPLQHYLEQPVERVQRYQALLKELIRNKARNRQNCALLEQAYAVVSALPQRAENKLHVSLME

pKd: 5.70
Substance: RanBP9 (from UniProt Q96S59)
